{"source": "patent US10584350B2", "about": "“Structurally modified COI1” (Board of Trustees of Michigan State University, priority 2016, dated 2020)", "molecules": {"B1": {"name": "COI1A384V: modified Arabidopsis thaliana COI1 protein with valine at position 384 (SEQ ID NO:2); also names transgenic plants expressing it (protein, listed as Arabidopsis thaliana)", "chain": "MEDPDIKRCKLSCVATVDDVIEQVMTYITDPKDRDSASLVCRRWFKIDSETREHVTMALCYTATPDRLSRRFPNLRSLKLKGKPRAAMFNLIPENWGGYVTPWVTEISNNLRQLKSVHFRRMIVSDLDLDRLAKARADDLETLKLDKCSGFTTDGLLSIVTHCRKIKTLLMEESSFSEKDGKWLHELAQHNTSLEVLNFYMTEFAKISPKDLETIARNCRSLVSVKVGDFEILELVGFFKAAANLEEFCGGSLNEDIGMPEKYMNLVFPRKLCRLGLSYMGPNEMPILFPFAAQIRKLDLLYALLETEDHCTLIQKCPNLEVLETRNVIGDRGLEVLAQYCKQLKRLRIERGADEQGMEDEEGLVSQRGLIALAQGCQELEYMVVYVSDITNESLESIGTYLKNLCDFRLVLLDREERITDLPLDNGVRSLLIGCKKLRRFAFYLRQGGLTDLGLSYIGQYSPNVRWMLLGYVGESDEGLMEFSRGCPNLQKLEMRGCCFSERAIAAAVTKLPSLRYLWVQGYRASMTGQDLMQMARPYWNIELIPSRRVPEVNQQGEIREMEHPAHILAYYSLAGQRTDCPTTVRVLKEPI"}}, "key": {"Spodoptera exigua": {"test_system": "Spodoptera exigua", "test": "Insect feeding assays", "format": "in vivo", "method": "Insect bioassays were performed as described by Herde et al. (Methods Mol Biol 1011:51-61 (2013)). Briefly, eggs of Spodoptera exigua were obtained from Benzon Research, and four neonate Spodoptera exigua larvae were transferred to the center of each 6-wk-old Arabidopsis host plant. Plants were grown under 8-hour light (100 μE·m^2·s) and 16-h dark and covered with cup cages. Larval weights were determined after 9-12 days of feeding."}, "PR1 gene expression": {"test_system": "PR1 gene expression", "test": "qPCR of SA-responsive gene PR1", "format": "in vivo, Arabidopsis", "settings": "plants expressing the protein", "method": "(§1) Col-0 and transgenic seeds were germinated on half-strength MS medium. Five-day-old seedlings were transferred into liquid half-strength MS medium. Segregating coil-30 seeds were germinated on half-strength MS medium with 10 μM MeJA. and MeJA-resistant 5-d-old seedlings were transferred into liquid half-strength MS medium. Next, 10 μM MeJA (Sigma), 0.2 μM COR or 0.1% DMSO were applied to 12-d-old seedlings. Samples were collected after 3 h and total RNA was extracted using Qiagen RNeasy Mini kit (Qiagen). M-MLV Reverse transcriptase (Life Technologies) and SYBR Green master mix (Life Technologies) were used for reverse-transcription and real-time PCR. Primers used were: […]"}, "Pst DC3000": {"test_system": "Pst DC3000", "test": "Bacterial infection assay, dip-inoculation", "format": "in vivo, Pseudomonas syringae pv tomato", "settings": "3 days after dip-inoculation", "method": "(§2) The Pseudomonas syringae infection assays in Arabidopsis were performed as described by Yao et al. (Methods Mol Biol 1011:63-81 (2013)). In brief, 4- to 5-wk-old (12-h light/12-h dark) Arabidopsis plants were dip-inoculated with bacterial suspension (1×10^8 cfu/mL Pst DC3000 or Psm ES4326 in 0.25 mM MgCl2 solution with 0.025% Silwet-77) or syringe-infiltrated with bacterial suspension (1×10^6 cfu/mL Pst DC3118 or DB29 in 0.25 mM MgCl2 solution). Bacterial growth was determined by serial dilutions of plant extracts 3 or 4 days after inoculation. Homozygous COI1-30 plants were selected by genotyping before bacterial infection."}, "COI1-JAZ9 interaction": {"test_system": "COI1-JAZ9 interaction", "test": "Quantitative liquid Y2H assays (Beta-Glo, RLU)", "format": "cell-based, Arabidopsis", "settings": "liquid Y2H, yeast", "method": "Yeast EGY48 strain carrying the p8Op:LacZ reporter plasmid was co-transformed with pGilda:COI1 (or COI1 mutants) and pB42AD:JAZ9 (or other JAZs) (Clontech). Colonies were selected on SD minimal plates (BD Biosciences) supplemented with the—uracil (U)/-tryptophan (W)/-histidine (H) amino acid drop out solution (Clontech). Yeast colonies were cultured overnight in liquid SD-UWH medium, harvested, washed twice in sterile water, and the absorbance (OD600) of the cultures was adjusted to 0.2 in liquid SD galactose/raffinose-UWH medium (BD Biosciences).\nFor liquid Y2H assays, cultures were supplemented with designated concentrations of JA-Ile (10 or 30 μM), COR (1 μM), or DMSO. After 16-h incubation with ligands, the liquid cultures were processed through the Beta-Glo Assay system (Promega) for detecting the β-galactosidase activity. […] Protein expression in yeast was detected using anti-LexA antibody (1:5,000; Upstate Biotechnology) for detection of COI1 expression from pGilda vector and anti-HA (1:5,000; Roche Life Science) antibody for detection of JAZ9 expression in pB42AD vector."}, "SID2 gene expression": {"test_system": "SID2 gene expression", "test": "qPCR of SA-responsive gene SID2", "format": "in vivo, Arabidopsis", "settings": "plants expressing the protein", "method": "as §1"}, "Psm ES4326": {"test_system": "Psm ES4326", "test": "Bacterial infection assay, dip-inoculation", "format": "in vivo, Pseudomonas syringae pv maculicola", "settings": "3 days after dip-inoculation", "method": "as §2"}, "root growth": {"test_system": "root growth", "test": "Root growth inhibition assays", "format": "in vivo, Arabidopsis", "settings": "root growth inhibition, 0.2 μM COR vs 10 μM MeJA, in vivo", "method": "Col-0, segregating COI1-30, transgenic COI1WT, and COI1A384V seeds were surface-sterilized, cold-stratified, and germinated on half-strength MS agar media containing MeJA, COR, or DMSO at the indicated concentrations. Seedlings were grown under long-day light conditions (16-h light at 100 μE·m^2·s, and 8-h dark) for 10-12 days before scanning images of roots. Root lengths were measured using ImageJ software (see website at rsbweb.nih.gov/ij/)."}}, "note": "“Also recorded” adds a separate entry of the source.", "data": [{"molecule": "B1", "values": [{"measurement": "average weight of larvae feeding on COI1-30 plants higher than larvae reared on these plants", "setting": "Spodoptera exigua; S. exigua neonate larvae", "value": "five-fold"}, {"measurement": "level of defense against S. exigua", "setting": "Spodoptera exigua; in vivo", "value": "almost wild-type levels"}, {"measurement": "expression of PR1 gene", "setting": "PR1 gene expression", "value": "similarly low"}, {"measurement": "resistance / susceptibility to Pst DC3000 (bacterial growth and disease symptoms)", "setting": "Pst DC3000", "value": "significantly increased resistance"}, {"measurement": "COR-dependent COI1-JAZ9 interaction", "setting": "COI1-JAZ9 interaction; 1 μM COR", "value": "greatly reduced"}, {"measurement": "JA-Ile-dependent COI1-JAZ9 interaction", "setting": "COI1-JAZ9 interaction; 10 or 30 μM JA-Ile", "value": "less effect"}, {"measurement": "differential effect on JA-Ile-dependent vs COR-dependent COI1-JAZ9 interaction", "setting": "COI1-JAZ9 interaction", "value": "preferably affects COR-dependent COI1-JAZ9 interaction"}, {"measurement": "expression of SID2 gene", "setting": "SID2 gene expression", "value": "similarly low"}, {"measurement": "resistance to Psm ES4326 compared with Col-0 or COI1WT plants", "setting": "Psm ES4326", "value": "significantly increased resistance"}, {"measurement": "sensitivity of plants to COR vs MeJA", "setting": "root growth", "value": "significantly less sensitive; also recorded: differentially sensitive"}, {"measurement": "sensitivity of plants to COR vs MeJA", "setting": "root growth; listed as COI A384V", "value": "more sensitive"}]}]}
